Measured values: the supplement of paper PMC10567573

B1: ATL3 (parent)
chain: YGLQGGMAFLDKRLQVKEHQHEEI
B2: DLC1 (parent)
chain: AEVVKIRDSFSNQNTETKDTKSR

Variants of: B1
Assay: protein stability index of a GFP-peptide fusion (GPS, HEK-293T) (PSI 1-6); higher = more stable
Conditions: c terminus: a fixed tail appended
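Also: lentivirally expressed fusions sorted by FACS into six bins by GFP to DsRed ratio, PSI derived from sequencing read proportions per bin multiplied by bin number.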

Protein stability index of substitutions, site by site:
E23: P 3.04; N 2.85; Y 2.76; T 2.74; W 2.57; R 2.99; V 2.17; Q 2.9; S 2.41
I24: H 3.42; K 2.35; C 3.25; M 1.71; R 2.26; N 2.89; E 2.29; A 2.58; G 3.23; T 1.79; V 2.5; Y 4.04; S 2.56; F 4.03; Q 2.14; L 2.51; P 2.81; D 2.33

Variants of: B2
Assay: as above
Conditions: c terminus: native

Protein stability index, by site and new letter:
N14: R 2.48; G 2.08; Q 2.37; T 2.55; P 3.12; E 2.24; W 2.37; F 1.93; A 1.86; K 2.44; I 2.08
E16: C 1.84; I 1.97; A 2.43; N 2.27; M 1.51; T 2.06; L 1.91; G 2.38; S 1.9; H 3; V 3.04; D 3.35; W 1.95; F 3.13
V4: N 2.48; T 2.18; E 2.59; F 2.89; C 2.3; P 3.04; R 2.3; H 2.14; I 1.98; G 2.01; A 1.73
V3: G 2.12; C 2.69; H 2; K 4.55; M 2.87; W 2.53; I 1.63; L 2.29; T 2.19; P 3.46; R 1.89; Y 1.7
E2: S 2.75; A 1.88; H 2.02; C 2.43; D 2.99; Q 1.79; T 3.03; Y 1.52; F 2.11; R 1.88; K 1.81; N 2.04
T15: V 2.38; I 1.62; H 1.77; D 3.36; A 2.14; C 2.08; S 2.75; W 2.05; N 2.52; K 2.21; E 3.38; Q 2.98; P 2.08
D8: F 3.02; E 2.92; C 1.46; T 2.32; N 2.07; P 1.73; M 1.65; Y 3.5; Q 1.26; L 2.62; V 3.31; H 2.41; G 2.23
I6: S 2.74; H 2.42; D 2.79; E 3.33; C 2.43; G 2.38; V 2.74; F 2.41; Y 2.65; R 3.18
Q13: C 1.93; N 2.56; S 1.87; H 2.32; L 2.31; W 2.36; R 3.77; A 2.41; E 2.9; M 1.94; K 1.77; G 2.33; T 2.45; P 2.4; V 3.62; D 2.37; Y 2.92
S11: L 1.88; V 2.35; N 4.69; I 1.9; T 2.48; H 2.61; Q 2.62; P 2.54; C 2.58; M 1.46; W 1.88; K 3.15
A1: H 2.51; S 1.75; D 3.12; P 1.72; R 2.73; F 2.06; L 2.08; G 2.9; M 2.37; Q 3.03; I 2.06
S9: W 2.14; M 2.92; Y 1.67; C 2.8
